Data on five substances can be found in paper PMC7026020.

The target of assay [1] is membrane FcγRIIIA (human) (UniProt P08637). Description: flow cytometry on cells.
For assay [2] the target is unchanged. Kind of assay: flow cytometry on cells; competition: CD16-transduced NK92 cells (2 x 10^4) incubated with FITC-conjugated anti-CD16 3G8 (1:100) and increasing concentrations of TmAbs or sc-TmAbs, 30 min at 4°C; percent inhibition of 3G8 binding.

Sequence of UniProt P08637 (P08637 17-208): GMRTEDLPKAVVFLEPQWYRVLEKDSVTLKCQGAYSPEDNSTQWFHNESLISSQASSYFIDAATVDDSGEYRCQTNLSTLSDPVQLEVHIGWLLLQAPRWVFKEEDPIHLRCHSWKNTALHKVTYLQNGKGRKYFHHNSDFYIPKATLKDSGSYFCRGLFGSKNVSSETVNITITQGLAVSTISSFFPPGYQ

As for cetuximab (antibody), the maximal percent inhibition of 3G8 binding (at 3 mg/mL) in assay [1] is 80%.

The substance infliximab (antibody) yielded a maximal percent inhibition of 3G8 binding (at 3 mg/mL) in assay [2] of 80%.

Substance ipilimumab (antibody) registered a maximal percent inhibition of 3G8 binding (at 3 mg/mL) in assay [1] of 80%.

Turning to rituximab (antibody), in assay [1], the maximal percent inhibition of 3G8 binding (at 3 mg/mL) came to 80%.

In assay [1], trastuzumab (antibody) had a maximal percent inhibition of 3G8 binding (at 3 mg/mL) of 80%.
